One assay has as its target α-Syn:nYFP (UniProt P37840 1-140). The assay can be described thus: split reporter (BiFC, NanoBiT); split-YFP; stable cell lines with α-Syn or tau fused to the N-terminal portion of YFP (bait), transfected with 250 ng prey plasmid with the C-terminal portion of YFP; fluorescence by flow cytometry at 48 hr and microscopy up to 72 hr. As to conditions: partners not purified. On the technique in general: A flow cytometer gives signals particle by particle.

The target in another assay is T1, tau:nYFP (UniProt P10636-8 1-441).
T1 construct: microtubule associated protein tau; Plasmids and their construction are in Supplementary file 2; also called nYFP-tau; tau fused to an N-terminal moiety of YFP
T1 sequence (P10636 other isoform, or with tags, fused parts or gaps): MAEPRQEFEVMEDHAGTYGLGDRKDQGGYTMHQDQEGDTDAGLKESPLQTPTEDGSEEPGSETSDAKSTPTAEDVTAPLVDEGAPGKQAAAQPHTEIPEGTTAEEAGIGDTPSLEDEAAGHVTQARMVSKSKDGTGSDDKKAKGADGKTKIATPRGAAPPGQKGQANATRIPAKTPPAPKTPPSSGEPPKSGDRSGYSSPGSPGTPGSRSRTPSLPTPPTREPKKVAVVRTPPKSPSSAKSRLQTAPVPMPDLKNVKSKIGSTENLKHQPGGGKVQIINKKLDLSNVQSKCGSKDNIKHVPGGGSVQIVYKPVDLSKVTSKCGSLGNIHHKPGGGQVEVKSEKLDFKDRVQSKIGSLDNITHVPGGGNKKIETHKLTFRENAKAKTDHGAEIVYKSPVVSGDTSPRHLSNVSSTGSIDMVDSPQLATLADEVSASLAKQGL
The assay is described as above. The settings on record: partners not purified.

B1: TRIM28:cYFP (natural protein, human, UniProt Q13263 1-835, looked up)
chain: MAASAAAASAAAASAASGSPGPGEGSAGGEKRSTAPSAAASASASAAASSPAGGGAEALELLEHCGVCRERLRPEREPRLLPCLHSACSACLGPAAPAAANSSGDGGAAGDGTVVDCPVCKQQCFSKDIVENYFMRDSGSKAATDAQDANQCCTSCEDNAPATSYCVECSEPLCETCVEAHQRVKYTKDHTVRSTGPAKSRDGERTVYCNVHKHEPLVLFCESCDTLTCRDCQLNAHKDHQYQFLEDAVRNQRKLLASLVKRLGDKHATLQKSTKEVRSSIRQVSDVQKRVQVDVKMAILQIMKELNKRGRVLVNDAQKVTEGQQERLERQHWTMTKIQKHQEHILRFASWALESDNNTALLLSKKLIYFQLHRALKMIVDPVEPHGEMKFQWDLNAWTKSAEAFGKIVAERPGTNSTGPAPMAPPRAPGPLSKQGSGSSQPMEVQEGYGFGSGDDPYSSAEPHVSGVKRSRSGEGEVSGLMRKVPRVSLERLDLDLTADSQPPVFKVFPGSTTEDYNLIVIERGAAAAATGQPGTAPAGTPGAPPLAGMAIVKEEETEAAIGAPPTATEGPETKPVLMALAEGPGAEGPRLASPSGSTSSGLEVVAPEGTSAPGGGPGTLDDSATICRVCQKPGDLVMCNQCEFCFHLDCHLPALQDVPGEEWSCSLCHVLPDLKEEDGSLSLDGADSTGVVAKLSPANQRKCERVLLALFCHEPCRPLHQLATDSTFSLDQPGGTLDLTLIRARLQEKLSPPYSSPQEFAQDVGRMFKQFNKLTEDKADVQSIIGLQRFFETRMNEAFGDTKFSAVLVEPPPMSLPGAGLSSQELSGGPGDGP
notes: Tripartite motif-containing 28 (TRIM28); Plasmids and their construction are in Supplementary file 2; also called TRIM28 fused to a C-terminal moiety of YFP; Prey
As for B1, the “fold lower BiFC signal than with tau as prey” value with α-Syn:nYFP and with tau:nYFP was around 8 fold throughout.

For the origin of these results see publication PMC5104516, “TRIM28 regulates the nuclear accumulation and toxicity of both alpha-synuclein and tau” (eLife, 2016).
